From patent US20230024933

Experiments:
[1] = tested on: T1, phosphoserine substrate peptide RRApSVA
T1 sequence: RRASVA

[2] = molecular target: histone γH2A.X^pY142, endogenous in primary murine fibroblast cultures (UniProt P27661)
[3] = tested on: T2, phosphotyrosine substrate peptide ENDpYINASL
T2 sequence: ENDYINASL

Substance | serine phosphatase activity (dephosphorylation assay) [1] | γH2A.X^pY142 foci per nucleus after NCS exposure [2] | activity to dephosphorylate peptide ENDpYINASL [3]
EYA1 isoform C (human splice variant EYA1C, exon 10 skipped) | dephosphorylation assays using the synthetic serine phosphatase substrate RRApSVA demonstrated superior serine phosphatase activity | – | –
mutant EYA1C to which exon 10 had been added (EYA1C::e10) | – | EYA1C containing exon 10 (EYA1C::e10) phenocopied EYA1A with regard to premature γH2A.X^pY142 dephosphorylation | overexpression of EYA1C::e10 phenocopied dephosphorylating efficacy and fibroblast accumulation of EYA1A
